Test results published in patent US20150355199A1 (ROCHE DIAGNOSTICS OPERATIONS, published 2015).

Experiments:
CFHR5-GS-Avi-GS-His8 = target: T1, CFHR5-GS-Avi-GS-His8 (human, UniProt Q9BXR6 19-569); assay: SPR (BiaCore), antibody captured by rabbit anti-mouse IgG on CM5 chip, antigen in solution
T1 construct: Tagged recombinant protein from HEK293 cells; also called recombinant CFHR5
T1 sequence: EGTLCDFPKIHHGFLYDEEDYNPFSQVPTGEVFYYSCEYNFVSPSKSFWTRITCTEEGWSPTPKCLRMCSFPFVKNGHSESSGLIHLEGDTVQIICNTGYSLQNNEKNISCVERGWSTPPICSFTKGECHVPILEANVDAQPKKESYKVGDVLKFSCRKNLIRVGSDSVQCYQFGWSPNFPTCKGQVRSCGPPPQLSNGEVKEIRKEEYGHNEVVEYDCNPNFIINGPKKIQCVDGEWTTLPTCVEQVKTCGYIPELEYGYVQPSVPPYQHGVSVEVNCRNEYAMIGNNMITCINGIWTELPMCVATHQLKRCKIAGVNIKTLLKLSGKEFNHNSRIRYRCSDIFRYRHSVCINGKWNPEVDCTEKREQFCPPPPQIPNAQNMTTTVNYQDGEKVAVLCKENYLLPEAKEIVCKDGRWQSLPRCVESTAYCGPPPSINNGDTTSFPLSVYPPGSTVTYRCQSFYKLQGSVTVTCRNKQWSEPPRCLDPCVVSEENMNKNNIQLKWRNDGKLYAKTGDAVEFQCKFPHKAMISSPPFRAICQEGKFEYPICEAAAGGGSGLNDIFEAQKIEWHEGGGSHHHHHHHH
Experimental: (§1) The antibodies MAB<CFH/CFHR1>M-L20/3, MAB<CFHR1>M-442127, MAB<CFHR1>M-4.1.3 and MAB<CFHR1>M-5.1.5 were analyzed on the BiaCore. The chip CM5 coated with a rabbit anti-Mouse IgG was used to bind the purified monoclonal mouse antibodies. In the next step native CFH or the recombinant CFHR1, CFHR2, CFHR3, CFHR4B or CFHR5 proteins according to SEQ ID No.: 9 to 13 were added to determine the binding affinities of the different antibodies.

[1] = target: T2, recombinant CFHR1-1-5 (tag-less, full-length mature human complement factor H-related protein 1) (human, UniProt Q03591 19-330); assay: as above
T2 construct: also called recCFHR1
T2 sequence: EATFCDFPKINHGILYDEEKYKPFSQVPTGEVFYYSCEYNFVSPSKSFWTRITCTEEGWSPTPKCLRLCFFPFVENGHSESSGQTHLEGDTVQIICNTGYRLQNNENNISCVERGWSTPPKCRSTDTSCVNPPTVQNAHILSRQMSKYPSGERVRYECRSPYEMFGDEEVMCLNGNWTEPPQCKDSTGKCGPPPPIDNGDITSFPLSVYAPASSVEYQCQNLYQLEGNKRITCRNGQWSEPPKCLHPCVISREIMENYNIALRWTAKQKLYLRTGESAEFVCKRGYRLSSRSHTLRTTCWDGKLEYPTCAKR
Experimental: as §1

[2] = target: T3, native human complement factor H (CFH) (human, UniProt P08603 19-1231); assay: as above
T3 construct: Native CFH; also called native CFH; serum-purified CFH
Experimental: as §1

CFHL1-GS-Avi-GS-His8 = target: T4, CFHL1-GS-Avi-GS-His8 (human, UniProt P08603 19-445); assay: SPR (BiaCore), antibody captured by rabbit anti-mouse IgG on CM5 chip; n.d. = not detectable
T4 construct: also called complement factor H isoform 2
Experimental: as §1

CFHR2-GS-Avi-GS-His8 = target: T5, CFHR2-GS-Avi-GS-His8 (human); assay: as above
T5 construct: Tagged recombinant protein from HEK293 cells; also called recombinant CFHR2
T5 chain: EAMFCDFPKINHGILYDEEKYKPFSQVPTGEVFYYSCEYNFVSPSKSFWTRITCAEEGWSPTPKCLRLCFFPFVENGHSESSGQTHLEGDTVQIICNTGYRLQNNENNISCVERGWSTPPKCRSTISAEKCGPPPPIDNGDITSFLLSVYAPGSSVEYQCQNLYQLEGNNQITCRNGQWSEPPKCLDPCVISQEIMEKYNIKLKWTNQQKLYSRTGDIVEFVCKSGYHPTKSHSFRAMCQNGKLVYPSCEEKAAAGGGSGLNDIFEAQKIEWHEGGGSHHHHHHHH
Experimental: as §1

CFHR3-GS-Avi-GS-His8 = target: T6, CFHR3-GS-Avi-GS-His8 (human, UniProt Q02985 19-330); assay: as above
T6 construct: Tagged recombinant protein from HEK293 cells; also called recombinant CFHR3
T6 sequence: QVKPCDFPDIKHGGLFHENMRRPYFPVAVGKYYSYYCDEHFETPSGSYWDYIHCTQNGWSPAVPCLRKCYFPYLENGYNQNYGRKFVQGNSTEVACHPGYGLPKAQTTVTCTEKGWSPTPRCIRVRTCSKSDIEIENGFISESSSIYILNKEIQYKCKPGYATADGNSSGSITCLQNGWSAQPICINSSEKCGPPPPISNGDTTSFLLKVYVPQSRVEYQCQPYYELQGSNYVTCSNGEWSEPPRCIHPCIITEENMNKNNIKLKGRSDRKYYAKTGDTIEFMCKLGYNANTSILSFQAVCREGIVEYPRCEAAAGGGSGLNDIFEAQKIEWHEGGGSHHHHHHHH
Experimental: as §1

[3] = target: T7, CFHR4-GS-Avi-GS-His8 (CFHR4 Variant B) (human); assay: as above
T7 construct: Tagged recombinant protein from HEK293 cells; also called CFHR4B; recombinant CFHR4B
T7 chain: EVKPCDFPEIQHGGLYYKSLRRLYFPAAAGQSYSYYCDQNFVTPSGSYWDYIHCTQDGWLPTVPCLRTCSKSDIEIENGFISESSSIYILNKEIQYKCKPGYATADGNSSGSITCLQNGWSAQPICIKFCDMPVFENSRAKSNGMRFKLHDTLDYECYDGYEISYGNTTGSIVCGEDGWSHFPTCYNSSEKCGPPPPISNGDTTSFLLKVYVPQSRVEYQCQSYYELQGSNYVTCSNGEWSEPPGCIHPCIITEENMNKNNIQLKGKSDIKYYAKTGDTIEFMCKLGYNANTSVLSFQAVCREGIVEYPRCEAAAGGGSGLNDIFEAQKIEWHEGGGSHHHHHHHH
Experimental: as §1

Kd (CFHR5-GS-Avi-GS-His8): 10 nM
Kd [1]: 0.1 nM
Kd [2]: 8 nM
binding result (CFHL1-GS-Avi-GS-His8): no binding
binding result (CFHR2-GS-Avi-GS-His8): no binding
binding result (CFHR3-GS-Avi-GS-His8): no binding
binding result [3]: no binding
B1: MAB<CFH/CFHR1>M-L20/3 (antibody, V domains shown)
VH: EVLLQQSGPELVKPGASVKIPCKASGYTFTDYNMDWVKQSHGKSLEWIGDINPNNGFTIYNQKFKGKATLTVDKSSSTAYMELRSLTSEDTAIYYCAINWDWFAYWGQGTLVTVSA
VL: DVLMTQTPLSLPVSLGDQASISCRSSQSIVHNNGNTYLEWYLLKPGQSPKLLIYKVSNRFSGVPDRFSGSGSGTDFTLKISRVEAEDLGVYYCFQGSHVPYTFGGGTKLEIKR
notes: Bought monoclonal mouse IgG; also called anti-Complement Factor H, Clone: L20/3; Thermo Scientific cat. no; GAU 020-03-02
